The assay addresses human Factor X activated (human) (UniProt P00742). In words: cell-based or functional assay.
Sequence of UniProt P00742 (P00742 235-488 limits assumed): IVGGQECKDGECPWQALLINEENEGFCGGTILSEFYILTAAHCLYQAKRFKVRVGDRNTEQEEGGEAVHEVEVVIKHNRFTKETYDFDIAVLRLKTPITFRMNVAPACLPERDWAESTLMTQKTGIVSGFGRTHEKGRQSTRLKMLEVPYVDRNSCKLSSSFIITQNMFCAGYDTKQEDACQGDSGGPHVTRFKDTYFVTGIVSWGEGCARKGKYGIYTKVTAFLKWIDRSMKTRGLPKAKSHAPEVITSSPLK

For the substance Amblyomin-X recombinant protein, the inhibition of the amidolytic activity of human Factor X activated (dose at which inhibition is seen) lay in the range of 5 to 10 µM.

The record behind these values is patent US20090042786A1.
